Experimental data from patent publication US20220211812A1 (Bristol-Myers Squibb, published 2022).
Square brackets hold non-standard residues; d marks the D form. Ends that are not written are not given here. Phe(4-Ac) = CC(=O)c1ccc(C[C@H](N)C(=O)O)cc1

Molecular target: T1, human RXFP1 receptor (human, UniProt Q9HBX9 1-757)
T1 sequence (looked up): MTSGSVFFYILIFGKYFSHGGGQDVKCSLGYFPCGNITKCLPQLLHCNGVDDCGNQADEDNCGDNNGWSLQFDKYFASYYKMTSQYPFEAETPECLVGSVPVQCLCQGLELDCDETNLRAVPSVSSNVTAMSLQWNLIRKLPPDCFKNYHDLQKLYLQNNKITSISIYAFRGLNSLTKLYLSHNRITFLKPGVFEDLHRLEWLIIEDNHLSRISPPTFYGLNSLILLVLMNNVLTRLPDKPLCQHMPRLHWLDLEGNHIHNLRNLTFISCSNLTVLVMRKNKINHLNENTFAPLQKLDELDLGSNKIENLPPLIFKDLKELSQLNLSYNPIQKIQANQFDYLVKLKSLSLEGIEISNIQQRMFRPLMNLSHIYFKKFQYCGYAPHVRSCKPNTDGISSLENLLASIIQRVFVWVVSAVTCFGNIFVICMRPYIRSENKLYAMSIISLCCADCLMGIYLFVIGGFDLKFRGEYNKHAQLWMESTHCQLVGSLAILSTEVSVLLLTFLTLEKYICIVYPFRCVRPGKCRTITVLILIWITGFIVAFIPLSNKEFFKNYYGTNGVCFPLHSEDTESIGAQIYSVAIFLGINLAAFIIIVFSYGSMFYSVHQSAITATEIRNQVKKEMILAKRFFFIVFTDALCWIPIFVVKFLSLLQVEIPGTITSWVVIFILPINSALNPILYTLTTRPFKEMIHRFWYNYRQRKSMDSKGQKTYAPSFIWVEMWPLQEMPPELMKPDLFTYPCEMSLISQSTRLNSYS
Test: cell-based or functional assay

B1: AQ1-KSGGSGG-Glu^γ-C13-COOH (ligand)
chain 1: XLYSALANKCCHVGCTKRSLARFC
chain 2: ASWMEEVIKLCGRELVRAQIAICGMSTWS
peptide: KSGGSGGE
modifications: not fully specified; Glu^γ bonded by amide to fatty acid -C13-COOH; oxime-linked to pAcF of the A chain; pAcF (para-acetyl-L-phenylalanine) at position 1, oxime-linked to PK enhancer KSGGSGG-Glu^γ-C13-COOH
hRXFP1/CHO-K1 cAMP EC50 (nM, avg): 0.24 nM

B2: AQ1-Sar-Sar-Sar-Glu-Glu-Glu^γ-C13-COOH (ligand)
chain 1: XLYSALANKCCHVGCTKRSLARFC
chain 2: ASWMEEVIKLCGRELVRAQIAICGMSTWS
peptide: XXXEEE
modifications: not fully specified; Sar = sarcosine (N-methylglycine); Glu^γ bonded by amide to fatty acid -C13-COOH; oxime-linked to pAcF of the A chain; pAcF (para-acetyl-L-phenylalanine) at position 1, oxime-linked to PK enhancer Sar-Sar-Sar-Glu-Glu-Glu^γ-C13-COOH
hRXFP1/CHO-K1 cAMP EC50 (nM, avg): 0.59 nM

B3: AQ1-EEEGGG-Glu^γ-C15-CH3 (ligand)
chain 1: XLYSALANKCCHVGCTKRSLARFC
chain 2: ASWMEEVIKLCGRELVRAQIAICGMSTWS
peptide: EEEGGGE
modifications: not fully specified; Glu^γ bonded by amide to fatty acid -C15-CH3; oxime-linked to pAcF of the A chain; pAcF (para-acetyl-L-phenylalanine) at position 1, oxime-linked to PK enhancer EEEGGG-Glu^γ-C15-CH3
hRXFP1/CHO-K1 cAMP EC50 (nM, avg): 0.46 nM

B4: AQ1-RGGEEKKKEKEK-Glu^γ-C13-COOH (ligand)
chain 1: XLYSALANKCCHVGCTKRSLARFC
chain 2: ASWMEEVIKLCGRELVRAQIAICGMSTWS
peptide: RGGEEKKKEKEKE
modifications: not fully specified; Glu^γ bonded by amide to fatty acid -C13-COOH; oxime-linked to pAcF of the A chain; pAcF (para-acetyl-L-phenylalanine) at position 1, oxime-linked to PK enhancer RGGEEKKKEKEK-Glu^γ-C13-COOH
hRXFP1/CHO-K1 cAMP EC50 (nM, avg): 0.29 nM

B5: WT-RLX (ligand)
chain 1: QLYSALANKCCHVGCTKRSLARFC
chain 2: ASWMEEVIKLCGRELVRAQIAICGMSTWS
modifications: disulfide (positions not given here); ends not checked
hRXFP1/CHO-K1 cAMP EC50 (nM, avg): 0.12 nM

B6: BM25/AN1-C13-CH3 (ligand)
chain 1: NLYSALANKCCHVGCTKRSLARFC
chain 2: ASWMEEVIKLCGRELVRAQIAICG[Phe(4-Ac)]STWS
modifications: disulfide (positions not given here); not fully specified (some residues); ends not checked; also: PK enhancer C13-CH3 oxime-linked to pAcF25
hRXFP1/CHO-K1 cAMP EC50 (nM, avg): 1.85 nM

B7: AQ1-KKSGGSGG-Glu^γ-C13-COOH (ligand)
chain 1: XLYSALANKCCHVGCTKRSLARFC
chain 2: ASWMEEVIKLCGRELVRAQIAICGMSTWS
peptide: KKSGGSGGE
modifications: not fully specified; Glu^γ bonded by amide to fatty acid -C13-COOH; oxime-linked to pAcF of the A chain; pAcF (para-acetyl-L-phenylalanine) at position 1, oxime-linked to PK enhancer KKSGGSGG-Glu^γ-C13-COOH
hRXFP1/CHO-K1 cAMP EC50 (nM, avg): 0.34 nM

B8: AQ1-EEEGGG-Glu^γ-C13-COOH (ligand)
chain 1: XLYSALANKCCHVGCTKRSLARFC
chain 2: ASWMEEVIKLCGRELVRAQIAICGMSTWS
peptide: EEEGGGE
modifications: not fully specified; Glu^γ bonded by amide to fatty acid -C13-COOH; oxime-linked to pAcF of the A chain; pAcF (para-acetyl-L-phenylalanine) at position 1, oxime-linked to PK enhancer EEEGGG-Glu^γ-C13-COOH
hRXFP1/CHO-K1 cAMP EC50 (nM, avg): 0.31 nM

B9: RLX-AQ1 (ligand)
chain 1: XLYSALANKCCHVGCTKRSLARFC
chain 2: ASWMEEVIKLCGRELVRAQIAICGMSTWS
modifications: pAcF (para-acetyl-L-phenylalanine) at position 1
hRXFP1/CHO-K1 cAMP EC50 (nM, avg): 0.11 nM

B10: AQ1-KKSAGSAG-Glu^γ-C13-COOH (ligand)
chain 1: XLYSALANKCCHVGCTKRSLARFC
chain 2: ASWMEEVIKLCGRELVRAQIAICGMSTWS
peptide: KKSAGSAGE
modifications: not fully specified; Glu^γ bonded by amide to fatty acid -C13-COOH; oxime-linked to pAcF of the A chain; pAcF (para-acetyl-L-phenylalanine) at position 1, oxime-linked to PK enhancer KKSAGSAG-Glu^γ-C13-COOH
hRXFP1/CHO-K1 cAMP EC50 (nM, avg): 0.27 nM

B11: AQ1-KKKSGGSGG-Glu^γ-C13-COOH (ligand)
chain 1: XLYSALANKCCHVGCTKRSLARFC
chain 2: ASWMEEVIKLCGRELVRAQIAICGMSTWS
peptide: KKKSGGSGGE
modifications: not fully specified; Glu^γ bonded by amide to fatty acid -C13-COOH; oxime-linked to pAcF of the A chain; pAcF (para-acetyl-L-phenylalanine) at position 1, oxime-linked to PK enhancer KKKSGGSGG-Glu^γ-C13-COOH
hRXFP1/CHO-K1 cAMP EC50 (nM, avg): 0.14 nM

B12: AQ1-GETGSSGEGT-Glu^γ-C13-COOH (ligand)
chain 1: XLYSALANKCCHVGCTKRSLARFC
chain 2: ASWMEEVIKLCGRELVRAQIAICGMSTWS
peptide: GETGSSGEGTE
modifications: not fully specified; Glu^γ bonded by amide to fatty acid -C13-COOH; oxime-linked to pAcF of the A chain; pAcF (para-acetyl-L-phenylalanine) at position 1, oxime-linked to PK enhancer GETGSSGEGT-Glu^γ-C13-COOH
hRXFP1/CHO-K1 cAMP EC50 (nM, avg): 0.65 nM

B13: AQ1-GGGGS-Glu^γ-C13-COOH (ligand)
chain 1: XLYSALANKCCHVGCTKRSLARFC
chain 2: ASWMEEVIKLCGRELVRAQIAICGMSTWS
peptide: GGGGSE
modifications: not fully specified; Glu^γ bonded by amide to fatty acid -C13-COOH; oxime-linked to pAcF of the A chain; pAcF (para-acetyl-L-phenylalanine) at position 1, oxime-linked to PK enhancer GGGGS-Glu^γ-C13-COOH
hRXFP1/CHO-K1 cAMP EC50 (nM, avg): 0.14 nM

B14: AQ1-GGGKKK-Glu^γ-C13-COOH (ligand)
chain 1: XLYSALANKCCHVGCTKRSLARFC
chain 2: ASWMEEVIKLCGRELVRAQIAICGMSTWS
peptide: GGGKKKE
modifications: not fully specified; Glu^γ bonded by amide to fatty acid -C13-COOH; oxime-linked to pAcF of the A chain; pAcF (para-acetyl-L-phenylalanine) at position 1, oxime-linked to PK enhancer GGGKKK-Glu^γ-C13-COOH
hRXFP1/CHO-K1 cAMP EC50 (nM, avg): 0.19 nM

B15: AQ1-EEEGGG-Glu^γ-C14-COOH (ligand)
chain 1: XLYSALANKCCHVGCTKRSLARFC
chain 2: ASWMEEVIKLCGRELVRAQIAICGMSTWS
peptide: EEEGGGE
modifications: not fully specified; Glu^γ bonded by amide to fatty acid -C14-COOH; oxime-linked to pAcF of the A chain; pAcF (para-acetyl-L-phenylalanine) at position 1, oxime-linked to PK enhancer EEEGGG-Glu^γ-C14-COOH
hRXFP1/CHO-K1 cAMP EC50 (nM, avg): 1.88 nM

B16: RLX-BM25/AN1 (ligand)
chain 1: NLYSALANKCCHVGCTKRSLARFC
chain 2: ASWMEEVIKLCGRELVRAQIAICG[Phe(4-Ac)]STWS
modifications: disulfide (positions not given here); ends not checked
hRXFP1/CHO-K1 cAMP EC50 (nM, avg): 0.09 nM

B17: AQ1-Compound 39 (ligand)
chain 1: XLYSALANKCCHVGCTKRSLARFC
chain 2: ASWMEEVIKLCGRELVRAQIAICGMSTWS
modifications: pAcF (para-acetyl-L-phenylalanine) at position 1, oxime-linked to Compound 39 ((S)-1-(aminooxy)-33-carboxy-4,7,17,27,35-pentaoxo-11,14,21,24-tetraoxa-3,8,18,28,34-pentaazadopentacontan-52-oic acid)
hRXFP1/CHO-K1 cAMP EC50 (nM, avg): 2.23 nM

B18: AQ1-KKSGGSGG-Glu^α-C13-COOH (ligand)
chain 1: XLYSALANKCCHVGCTKRSLARFC
chain 2: ASWMEEVIKLCGRELVRAQIAICGMSTWS
peptide: KKSGGSGGE
modifications: not fully specified; Glu^α linked to fatty acid -C13-COOH; oxime-linked to pAcF of the A chain; pAcF (para-acetyl-L-phenylalanine) at position 1, oxime-linked to PK enhancer KKSGGSGG-Glu^α-C13-COOH
hRXFP1/CHO-K1 cAMP EC50 (nM, avg): 0.27 nM

B19: AQ1-GSGSGSGS-Glu^γ-C15-COOH (ligand)
chain 1: XLYSALANKCCHVGCTKRSLARFC
chain 2: ASWMEEVIKLCGRELVRAQIAICGMSTWS
peptide: GSGSGSGSE
modifications: not fully specified; Glu^γ bonded by amide to fatty acid -C15-COOH; oxime-linked to pAcF of the A chain; pAcF (para-acetyl-L-phenylalanine) at position 1, oxime-linked to PK enhancer GSGSGSGS-Glu^γ-C15-COOH
hRXFP1/CHO-K1 cAMP EC50 (nM, avg): 2.79 nM

B20: AQ1-EEEEPEEEEPEEEEPEEEE-Glu^γ-C14-CH3 (ligand)
chain 1: XLYSALANKCCHVGCTKRSLARFC
chain 2: ASWMEEVIKLCGRELVRAQIAICGMSTWS
peptide: EEEEPEEEEPEEEEPEEEEE
modifications: not fully specified; Glu^γ bonded by amide to fatty acid -C14-CH3; oxime-linked to pAcF of the A chain; pAcF (para-acetyl-L-phenylalanine) at position 1, oxime-linked to PK enhancer EEEEPEEEEPEEEEPEEEE-Glu^γ-C14-CH3
hRXFP1/CHO-K1 cAMP EC50 (nM, avg): 0.33 nM
